Measurements taken from the supplement of paper PMC10126150.
± gives the standard deviation of the averaged measurements.

Tested on: ATP
Experiment: switch fluorescence ratio, 500 uM ATP over buffer (Cy3 cluster intensity, sum of 5 cycles each) (fold (ratio)); higher = stronger signal-on switching upon ATP binding; sequences stand for … in TCGTCGGCAGCGTCAGATGTGTATAAGAGACAGTTTTTTTTTTTTTTTTTTTTTTTTT…TC
Conditions: aptamer strand: ATP DNA aptamer (quencher-CACCTGGGGGAGTATTGCGGAGGAAGG + anchor), 100 nM annealed; ATP concentration: 500 uM
Method in brief: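 After annealing to 100 nM quencher-labelled ATP aptamer, Cy3-labelled switching-strand clusters on a modified Illumina MiSeq flow-cell were imaged in selection buffer. A second image followed after 15 min with 500 uM ATP at 22 °C, and five such buffer/ATP cycles were done, each separated by NaOH stripping and re-annealing. The fluorescence ratio, averaged per switch-domain sequence, is summed target-cycle over summed buffer-cycle Cy3 intensity per cluster, with clusters outside 100-1000 RFU excluded.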
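Note: ATP exposure 15 min at 22 °C before imaging.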

Row | Sequence | switch fluorescence ratio
1 | TCCAGGGTAC | 1.23 ± 0.18
2 | TCCAGGGTTA | 1.031 ± 0.0058
3 | TCCAGTTGCT | 1.02 ± 0.033
4 | TCCAGTTGTA | 0.99 ± 0.019
5 | TCCATCGGGG | 1.01 ± 0.013
6 | TCCATGGGAC | 1.03 ± 0.041
7 | TCCATGTGCC | 1.14 ± 0.14
8 | TCCCATGTTT | 0.963 ± 0.032
9 | TCCCGAGGGG | 1.083 ± 0.01
10 | TCCCGGGACA | 1.79 ± 1.1
11 | TCCCGGTTTT | 1.1 ± 0.11
12 | TCCCTGGACT | 1.023 ± 0.0099
13 | TCCGAATTGG | 1.05 ± 0.022
14 | TCCGAGGGAT | 2.25 ± 1.3
15 | TCCGATGGGT | 1.145 ± 0.0095
16 | TCCGCACCGT | 1.76 ± 0.23
17 | TCCGGAGGAC | 1.86 ± 0.03
18 | TCCGGAGGGT | 1.05 ± 0.06
19 | TCCGGATCGG | 1.03 ± 0.012
20 | TCCGGCACGT | 1.01 ± 0.019
21 | TCCGGCCAGC | 1.28 ± 0.025
22 | TCCGGGATGG | 1.33 ± 0.39
23 | TCCGGGGAGC | 1.06 ± 0.015
24 | TCCGGGGTTG | 0.988 ± 0.046
25 | TCCGGGTGTA | 1.14 ± 0.22

Row | Sequence | switch fluorescence ratio
26 | TCCGGGTTGG | 1.03 ± 0.013
27 | TCCGGTCGAT | 1.127 ± 0.0072
28 | TCCGGTGACG | 0.968 ± 0.033
29 | TCCGGTTTCG | 1.02 ± 0.039
30 | TCCGTTAAGA | 1.083 ± 0.0019
31 | TCCGTTATTT | 1.021 ± 0.0092
32 | TCCGTTGGTG | 1.01 ± 0.072
33 | TCCTAAAAGT | 1.01 ± 0.021
34 | TCCTAAACGT | 1.072 ± 0.0029
35 | TCCTAGGTTT | 1 ± 0.015
36 | TCCTATATTG | 0.986 ± 0.0023
37 | TCCTGAGTTT | 0.991 ± 0.047
38 | TCCTGATTCT | 1.03 ± 0.033
39 | TCCTGATTGT | 0.988 ± 0.022
40 | TCCTGGGTTG | 0.99 ± 0.066
41 | TCCTTAACTT | 1.02 ± 0.061
42 | TCCTTCACGA | 2.067 ± 0.017
43 | TCCTTCCGGG | 2.16 ± 0.19
44 | TCCTTGAGTG | 1.03 ± 0.031
45 | TCCTTGATAT | 0.995 ± 0.04
46 | TCCTTGGGTT | 1.016 ± 0.0099
47 | TCCTTGTCTT | 1.01 ± 0.016
48 | TCCTTTATAC | 3.09 ± 0.71
49 | TCCTTTTATG | 0.98329 ± 2.8e-05
50 | TCCTTTTTTT | 1.01 ± 0.033

Row | Sequence | switch fluorescence ratio
51 | TCGAAACTGG | 1.09 ± 0.11
52 | TCGAAGTGAA | 1.09 ± 0.018
53 | TCGAAGTTTT | 0.9996 ± 0.0089
54 | TCGAATATGT | 0.986 ± 0.025
55 | TCGACCGGGG | 1.039 ± 0.0098
56 | TCGACGGAGT | 1.114 ± 0.00049
57 | TCGACTGGGG | 1 ± 0.034
58 | TCGAGAATGG | 0.952 ± 0.017
59 | TCGAGAGAAA | 1.01 ± 0.016
60 | TCGAGAGGGT | 0.996 ± 0.015
61 | TCGAGAGGTG | 1.1 ± 0.1
62 | TCGAGATAGC | 1.03 ± 0.011
63 | TCGAGATATG | 0.978 ± 0.09
64 | TCGAGCACTG | 1.13 ± 0.065
65 | TCGAGCAGCT | 1.1 ± 0.032
66 | TCGAGCCCCA | 1.04 ± 0.087
67 | TCGAGGAATT | 1.02 ± 0.02
68 | TCGAGGGAGT | 1.02 ± 0.028
69 | TCGAGGTAGA | 1.01 ± 0.05
70 | TCGAGTCATC | 0.965 ± 0.019
71 | TCGAGTGGAG | 1.0319 ± 0.00064
72 | TCGATAGACG | 1.02 ± 0.018
73 | TCGATCTTTT | 1.24 ± 0.4
74 | TCGATGCTGG | 0.982 ± 0.084
75 | TCGATTCGAT | 1.35 ± 0.57

Row | Sequence | switch fluorescence ratio
76 | TCGATTTCTT | 1.1 ± 0.077
77 | TCGCAAAATT | 2.15 ± 1.3
78 | TCGCAGCAGG | 2.82 ± 0.097
79 | TCGCGACTTG | 0.9946 ± 0.0054
80 | TCGCGAGGAG | 1.04 ± 0.014
81 | TCGCGAGGGG | 0.997 ± 0.025
82 | TCGCGCGGTG | 0.978 ± 0.021
83 | TCGCGGGAAA | 1.01 ± 0.025
84 | TCGCTGGGAT | 1.2 ± 0.27
85 | TCGCTGTAGG | 1.1 ± 0.059
86 | TCGGAATCAA | 1.127 ± 0.0071
87 | TCGGACTCTT | 1.01 ± 0.024
88 | TCGGAGAGGA | 0.986 ± 0.016
89 | TCGGAGATAT | 1 ± 0.045
90 | TCGGAGGAAA | 0.999 ± 0.047
91 | TCGGAGGTCA | 0.956 ± 0.03
92 | TCGGATGGTT | 0.978 ± 0.024
93 | TCGGCACCGG | 1.02 ± 0.024
94 | TCGGCATGGG | 1.11 ± 0.11
95 | TCGGCATTAA | 1.37 ± 0.1
96 | TCGGCATTTT | 1.027 ± 0.0014
97 | TCGGCCCAGG | 3.6 ± 1.4
98 | TCGGCCGGGG | 1.02 ± 0.015
99 | TCGGCGAAAG | 1.02 ± 0.023
100 | TCGGCGACAT | 1.005 ± 0.0072

Row | Sequence | switch fluorescence ratio
101 | TCGGCGAGGG | 0.977 ± 0.021
102 | TCGGCGTCTT | 0.977 ± 0.04
103 | TCGGCTATG | 1.12 ± 0.15
104 | TCGGCTATTT | 1.03 ± 0.019
105 | TCGGCTTAGG | 0.987 ± 0.048
106 | TCGGGAAATT | 1.012 ± 0.0019
107 | TCGGGACGGG | 1.01 ± 0.013
108 | TCGGGAGAGC | 1.04 ± 0.038
109 | TCGGGAGATT | 1.02 ± 0.029
110 | TCGGGATCGG | 1 ± 0.015
111 | TCGGGCAGCG | 0.989 ± 0.058
112 | TCGGGCAGGG | 1.003 ± 0.0044
113 | TCGGGGATCT | 1.033 ± 0.0073
114 | TCGGGGCCGT | 0.971 ± 0.059
115 | TCGGGGCCTC | 1.04 ± 0.024
116 | TCGGGGCTCT | 1.07 ± 0.12
117 | TCGGGGCTTT | 0.982 ± 0.022
118 | TCGGGGGAAG | 1.01 ± 0.038
119 | TCGGGGGAGC | 0.984 ± 0.025
120 | TCGGGGGGAA | 1.06 ± 0.057
121 | TCGGGGGGTT | 0.998 ± 0.034
122 | TCGGGGGTAA | 1.01 ± 0.033
123 | TCGGGGGTCG | 0.954 ± 0.097
124 | TCGGGGTCTG | 0.9872 ± 0.0066
125 | TCGGGGTGCA | 0.9732 ± 0.0086

Row | Sequence | switch fluorescence ratio
126 | TCGGGGTGTG | 0.988 ± 0.031
127 | TCGGGGTTCG | 0.992 ± 0.03
128 | TCGGGGTTGG | 0.978 ± 0.029
129 | TCGGGTAAAA | 1.01 ± 0.028
130 | TCGGGTAGTG | 1.01 ± 0.026
131 | TCGGGTATAT | 1 ± 0.044
132 | TCGGGTCGTA | 1.02 ± 0.019
133 | TCGGGTGTGA | 1.029 ± 0.0015
134 | TCGGGTGTTG | 1.03 ± 0.048
135 | TCGGGTTGTG | 0.959 ± 0.031
136 | TCGGTAGCAG | 1.092 ± 0.01
137 | TCGGTCCGAT | 0.9997 ± 0.005
138 | TCGGTGAATT | 1.01 ± 0.011
139 | TCGGTGAGGG | 1.02 ± 0.07
140 | TCGGTGCCTG | 1.01 ± 0.36
141 | TCGGTGGTAA | 0.9823 ± 0.0065
142 | TCGGTTTTGT | 0.983 ± 0.026
143 | TCGTAAAGGA | 1.03 ± 0.043
144 | TCGTACTGAC | 1.03 ± 0.044
145 | TCGTACTGGT | 0.99 ± 0.068
146 | TCGTAGACGT | 1.01 ± 0.011
147 | TCGTAGGAGG | 1.07 ± 0.024
148 | TCGTAGGATG | 0.975 ± 0.037
149 | TCGTAGGTAA | 1.1 ± 0.12
150 | TCGTAGTATT | 0.993 ± 0.021

Row | Sequence | switch fluorescence ratio
151 | TCGTATCATT | 0.976 ± 0.02
152 | TCGTCAGCTG | 1.02 ± 0.061
153 | TCGTCTCTTT | 0.986 ± 0.018
154 | TCGTGAACCC | 1.01 ± 0.023
155 | TCGTGAAGAG | 0.987 ± 0.012
156 | TCGTGAAGCG | 1.04 ± 0.025
157 | TCGTGATGTA | 0.974 ± 0.014
158 | TCGTGCATGG | 1.046 ± 0.008
159 | TCGTGCGCTG | 0.997 ± 0.079
160 | TCGTGCGGGG | 0.969 ± 0.016
161 | TCGTGCTGGG | 1 ± 0.067
162 | TCGTGGACGC | 0.995 ± 0.031
163 | TCGTGGATGT | 1 ± 0.028
164 | TCGTGGGGTG | 0.999 ± 0.042
165 | TCGTGGGTGC | 1.01 ± 0.023
166 | TCGTGGTTTA | 0.994 ± 0.021
167 | TCGTGGTTTC | 0.9823 ± 0.0069
168 | TCGTGTGACC | 1.009 ± 0.0093
169 | TCGTGTTCTT | 0.95 ± 0.028
170 | TCGTGTTGTT | 0.969 ± 0.021
171 | TCGTGTTTTT | 1.01 ± 0.013
172 | TCGTTAAACT | 1.02 ± 0.011
173 | TCGTTAATGG | 1.004 ± 0.0049
174 | TCGTTCGAGG | 0.958 ± 0.013
175 | TCGTTGAACG | 0.973 ± 0.03

Row | Sequence | switch fluorescence ratio
176 | TCGTTGAGTG | 1.02 ± 0.056
177 | TCGTTGCGT | 1.01 ± 0.0017
178 | TCGTTGGCGG | 0.951 ± 0.019
179 | TCGTTGGGGA | 1 ± 0.018
180 | TCGTTGGGTG | 0.994 ± 0.015
181 | TCGTTGGTTT | 0.994 ± 0.021
182 | TCGTTGTGTG | 0.981 ± 0.019
183 | TCGTTTCATA | 0.9784 ± 0.0036
184 | TCGTTTGTGG | 1.04 ± 0.013
185 | TCGTTTTAGT | 0.985 ± 0.014
186 | TCGTTTTGTT | 0.975 ± 0.051
187 | TCGTTTTTAT | 0.983 ± 0.023
188 | TCTAAAAAGG | 0.998 ± 0.025
189 | TCTAAAATTT | 1.15 ± 0.18
190 | TCTAAAGTGT | 0.983 ± 0.0088
191 | TCTAAGGGGA | 1.06 ± 0.11
192 | TCTAAGTGAG | 1.02 ± 0.016
193 | TCTAAGTTA | 0.998 ± 0.012
194 | TCTAATGAGG | 1.006 ± 0.0063
195 | TCTAATGTGG | 0.983 ± 0.043
196 | TCTAATTCAA | 0.996 ± 0.018
197 | TCTACTGGGG | 0.994 ± 0.029
198 | TCTAGGACGG | 1 ± 0.017
199 | TCTAGGCGTC | 1.07 ± 0.031
200 | TCTAGGGCAA | 1.66 ± 0.086
